Measured values as given in patent US5496831, “Inhibition of insulin-induced adiposis” (The General Hospital Corporation).

Assays:
GST-RBAP-1 (E2F-1) [1] = target: T1, GST-RBAP-1 (E2F-1) (UniProt Q01094 Q01094:1-437); assay: competition; competitor vs labelled IRE-A; conditions: tags: GST fusion, bacterial expression, glutathione Sepharose purified; label: 32P when used as probe
Procedure: (§1) FIG. 4C is an electrophoretic mobility shift assay showing IRP-A and GST-RBAP-1 complexes with IRE-A DNA. GST-RBAP-1 (lanes 1–3) or nuclear proteins isolated from fasted-refed liver nuclear extract (lanes 4–6) were incubated with ^32P-labelled IRE-A DNA in the presence of: lanes 1 and 4, mutant IRE-A DNA (GC→TA); lanes 2 and 5, wild-type E2 DNA; and, lanes 3 and 6, mutant E2 DNA (GC→TA) as described above.
(§2) The EMSA procedure has been described previously (Nasrin, et al., Proc. Natl. Acad. Sci. USA, 87:5273–5277, 1990). Nuclear extract or GST-RBAP-1 was incubated with 0.25–0.5 ng of ^32P-labelled oligo in 20 μl of binding buffer containing 10 mM HEPES (pH 7.9), 0.1 mM EDTA, 10 mM MgCl_2, 5 mM KCl, 150 mM NaCl, 25 mM DTT and 250 ng of poly(dI)poly(dC). The reaction products were separated at 4° C. in a 4.5% polyacrylamide gel run in 50 mM Tris-HCL (pH 8.5), 380 mM glycine and 2 mM EDTA. The gel was dried and exposed to film. The sequences of the oligonucleotides used to characterize IRE-A-like and E2F-like DNA binding activities are shown. Cognate E2F sites include E2F wild-type, 5'-[…]-[…]-3' (SEQ ID NO: 4); E2F mutant, 5'-ATT-[…]-3' (SEQ ID NO: 5); DRTF wild-type, 5'-[…]-3' (SEQ ID NO: 6). The GAPDH IRE-A used for gel shifts included nucleotides −487 to −408 of the promoter (Nasrin, et al., Proc. Natl. Acad. Sci. USA, 87:5273–5277, 1990). […]

E2F-1 = E2F-1 (UniProt Q01094 Q01094:1-437); assay: cell_activity; CAT stimulation by CMV-E2F in L6 muscle cells; tetramer on minimal GAPDH promoter; conditions: tags: CMV-E2F expression plasmid
GST-RBAP-1 (E2F-1) [2] = target: T1, GST-RBAP-1 (E2F-1); assay: competition; mutant competitor vs labelled IRE-A; conditions: tags: GST fusion, bacterial expression, glutathione Sepharose purified
Procedure: as §1, §2

T1 sequence (Q01094 whole entry, the tested form may be a part, one chain of several): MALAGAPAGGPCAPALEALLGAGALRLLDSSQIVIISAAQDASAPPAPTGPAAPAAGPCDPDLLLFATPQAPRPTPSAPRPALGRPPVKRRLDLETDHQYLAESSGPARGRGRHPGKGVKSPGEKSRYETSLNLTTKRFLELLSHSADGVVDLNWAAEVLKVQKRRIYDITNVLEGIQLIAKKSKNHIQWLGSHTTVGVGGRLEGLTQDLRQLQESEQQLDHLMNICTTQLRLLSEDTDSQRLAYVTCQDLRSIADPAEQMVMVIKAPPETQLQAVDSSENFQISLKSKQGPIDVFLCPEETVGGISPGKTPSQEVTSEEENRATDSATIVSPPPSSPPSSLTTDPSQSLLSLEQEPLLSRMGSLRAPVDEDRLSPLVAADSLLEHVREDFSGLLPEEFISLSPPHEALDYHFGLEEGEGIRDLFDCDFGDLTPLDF
E2F-1, sequence (Q01094 whole entry, the tested form may be a part, one chain of several): as above

B1: E2 (cognate E2F site) wild-type (dsDNA)
DNA 1: ATTTAAGTTTCGCGCCCTTTCTCAA
DNA 2: TTGAGAAAGGGCGCGAAACTTAAAT
binding result (GST-RBAP-1 (E2F-1) [1]): binds

B2: IRE-A minimal motif tetramer-CAT (dsDNA)
DNA 1: AAGTTCCCCAACTTTCCCGCCTCTCAGCCTTTGAAAG
DNA 2: CTTTCAAAGGCTGAGAGGCGGGAAAGTTGGGGAACTT
activity (E2F-1): 7 fold

B3: E2 mutant (GC to TA) (dsDNA)
DNA 1: ATTTAAGTTTCGATCCCTTTCTCAA
DNA 2: TTGAGAAAGGGATCGAAACTTAAAT
binding result (GST-RBAP-1 (E2F-1) [2]): no binding
